# Experimental data published in patent US5882644A, “Monoclonal antibodies specific for the platelet derived growth factor β receptor and methods of use thereof” (Protein Design Labs, Inc., priority 1996, dated 1999).
# Entries after “also recorded” stand apart in the source; their conditions may differ.
# B1: muM4TS.11: murine monoclonal antibody to PDGF-R β, variable regions SEQ ID NOS:10 and 12; epitope in fourth extracellular domain (antibody, V domains shown)
# VL: METETLLLWVLLLWVPGSTGDIVLTQSPPSLAVSLGQRATISCRASESVDSYGNSFMHWYQQKPGQPPKLLIYRASNLESGIPARFSGGGSRTDFTLTINPVEADDVATYYCQQSNEDPPTFGGGTKLEIK
# VH: MERHWIFLFLFSVTAGVHSQVQLQQSGAEVAKPGASVKMSCKASGYTFTNCWMHWVKQRPGQGLEWIGYINPTTGYSEYNQNFKDKATLTADKSSNTAYIQLSSLTSEDSAVYYCTSNYGHYDWFANWGQGTLVT
# Assays:
# PDGF-R β = experiment: Competitive binding with 125I-PDGF BB on transfectant cells expressing PDGF-R β; design: species or system human; settings: 4° C.
# Procedure: To determine the ability of muM4TS.11 and muM4TS.22 to block binding of PDGF BB to PDGF-R β, the following competitive binding experiments were performed. Transfectant cells expressing PDGF-R β were harvested, washed twice with cold DMEM, and resuspended at 10^6 cells/ml in DMEM. The assay was carried out in triplicate by incubating 100 μl of the cell suspension with either: 1) no antibody (to determine total binding); 2) varying concentrations of antibody; or 3) 100 ng cold PDGF BB (to saturate specific binding sites and determine non-specific binding) for 15 minutes at 4° C. Each sample received 1.0 ng ^125 I-labeled PDGF BB, and was incubated for an additional 60 min at 4° C. Unbound ^125 I-labeled PDGF BB was separated from that bound to the cell by layering the sample over a mixture of 80% dibutylphthalate, 20% olive oil in a microfuge tube, and microfuging briefly to pellet the cells through the oil mixture. The tubes were placed in dry ice to freeze the contents, the tip of the tube containing the cell pellet was cut off into a vial, and radioactivity was determined in a gamma counter.
# To assess the ability of HuM4TS.22 to block the binding of PDGF BB to its receptor, competitive binding experiments of HuM4TS.22 with ^125 I-PDGF BB were performed according to the method described in Example 3.
# To assess the ability of muM4TS.11 and HuM4TS.11 to block the binding of PDGF BB to the PDGF β receptor, competitive binding experiments of these antibodies with ^125 I-PDGF BB were performed according to the method described in Example 3.
# [1] = test system: PDGF-R β deletion fusion proteins; experiment: ELISA epitope mapping with PDGF-R β deletion fusion proteins; type: binding, human
# Excerpt: To localize the binding sites of the M4TS antibodies on the PDGF-R, a series of PDGF-R β deletion mutants, each consisting of one or more adjacent domains of the extracellular portion of the receptor, was constructed by standard methods including PCR. The deletion constructs were each cloned into an expression plasmid (FIG. 13A) where they were fused to the constant region of the human lambda-1 immunoglobulin light chain, to facilitate detection in ELISA. The constructs were as follows (see FIG. 13B):
# These PDGF-R β deletion fusion proteins were transiently expressed, by transfecting 10 μg of the respective expression plasmids into approximately 10^7 S194 mouse myeloma cells (ATCC TIB 19) using the DEAE-dextran method in accordance with the method described by Queen et al. (1984) Mol. Cell. Biol. 4:1042. After the transfected cells had died (4-5 days) and been removed by centrifugation, the culture supernatants containing the PDGF-R β deletion proteins were used in ELISA assays, 100 μl/well. First, the relative levels of the various PDGF-R β deletion proteins were measured in an ELISA where the plate was coated with goat anti-human lambda antibody (Tago) and the proteins detected with HRP-conjugated goat anti-human lambda antibody. […] To determine the ability of the antibodies to bind to each deletion protein, an ELISA was performed in which goat anti-human lambda antibody was used to coat the plate, followed by the cell supernatant and then 0.1 μg of the appropriate antibody, and then bound antibody detected with HRP-conjugated goat-anti-mouse Ig or goat-anti-human Ig antibody as appropriate (Tago). As a positive control, purified soluble PDGF-R β (Example 1) was coated directly on certain wells of the plate (denoted D1-5 in FIG. 14).
# [2] = Pharmacokinetics in rats (plasma antibody by ELISA); type: in vivo, rat
# Procedure: In preliminary experiments to determine the pharmacokinetics of muM4TS.11 in rats, an initial dose of antibody was injected and blood samples obtained at 1, 2, 3, 6, 12, 24, 36, and 48 hr. Antibody levels in plasma were measured by ELISA. The half-life of the antibody in rats was approximately 1 day. […] (In humans, proportionally smaller and less frequent doses are likely to be sufficient for a humanized anti-PDGF-R β antibody such as HuM4TS.11 or HuM4TS.22 to be effective, because of the expected longer half-life in humans and higher affinity for human PDGF-R β of these non-immunogenic HuAbs).
molecule,measurement,setting,value
B1,blocking of 125I-PDGF BB binding to PDGF-R β,PDGF-R β,did not; also recorded: neither muM4TS.11 nor HuM4TS.11 were able to inhibit binding of PDGF BB to its receptor
same,binding to deletion proteins containing only first through third domains,[1]; 0.1 μg antibody,do not bind
same,binding to protein D1-4,[1]; 0.1 μg antibody,do bind to protein D1-4
same,binding to protein D5 (fifth domain only),[1]; separate experiment,"none of muM4TS.11 and HuM4TS.11, muM4TS.22 and HuM4TS.22 bound to it"
same,time antibody level stays above the in vitro inhibitory concentration,"[2]; 4 mg bolus, then 2 mg IV every 24 hr for 4 days",at least 7 days
same,half-life of the antibody,"[2]; preliminary experiments, plasma",approximately 1 day
